Experimental data: patent US20260191954A1, “COMPOSITIONS AND METHODS FOR NEOADJUVANT TREATMENT IN CANCER” (INNATE PHARMA, priority 2022, published 2026)

Experiments:
[1] = molecular target: T1, recombinant human CD39 protein (huCD39) (Homo sapiens, UniProt P49961); assay: eATP release by H1703 (CD39-) cells incubated with recombinant huCD39, with or without IPH5201, then docetaxel; assay type: cell-based; details: H1703 cells + huCD39 400 ng/ml + docetaxel 0.1 μM; IPH5201 10 μg/mL; 40 h; FIG. 3A
T1 sequence (P49961 38-478 limits assumed): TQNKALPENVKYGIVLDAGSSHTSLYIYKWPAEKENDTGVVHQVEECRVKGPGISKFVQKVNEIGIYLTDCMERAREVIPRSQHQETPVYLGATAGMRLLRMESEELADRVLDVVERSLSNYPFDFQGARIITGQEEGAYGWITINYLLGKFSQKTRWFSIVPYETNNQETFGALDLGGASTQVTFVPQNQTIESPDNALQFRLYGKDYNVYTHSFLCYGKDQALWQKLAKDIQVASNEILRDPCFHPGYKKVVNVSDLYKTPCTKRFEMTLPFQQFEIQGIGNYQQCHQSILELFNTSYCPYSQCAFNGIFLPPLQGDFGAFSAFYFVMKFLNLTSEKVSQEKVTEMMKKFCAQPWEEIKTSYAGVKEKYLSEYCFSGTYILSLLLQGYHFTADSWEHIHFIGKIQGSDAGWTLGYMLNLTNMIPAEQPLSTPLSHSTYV
Method: H1703 (CD39−) cells were incubated with recombinant human CD39 protein (huCD39) (400 ng/ml) to mimic soluble CD39 in tumor microenvironment with or without IPH5201 (humanized anti-CD39 antibody having the respective heavy and light chain amino acid sequences of SEQ ID NOS: 10 and 11) at 10 μg/mL and then treated with docetaxel (0.1 μM). The measure of extracellular ATP (eATP) release was performed 40 h after docetaxel treatment.
(§1) OAW42 (CD39+) cells were incubated with 10 or 50 μg/mL of IPH5201 and treated with a dose range of docetaxel. The measure of eATP release was performed 30 h after docetaxel treatment. eATP was measured in the cell culture supernatant with a luminescent-based assay (CellTiter-Glo®) and expressed in Luminescence Arbitrary Unit (AU). Means+/−SD.

[2] = system: OAW42 (CD39+) cells; assay: eATP release in OAW42 (CD39+) cells with IPH5201 and docetaxel; assay type: cell-based; details: IPH5201 10 or 50 μg/mL + docetaxel dose range, 30 h, FIG. 3B
Method: as §1

[3] = Phase 1 study of IPH5201 +/- durvalumab in advanced solid tumours: safety; assay type: in vivo
Method: A first-in-human, multicentre, non-randomised, open-label, phase 1 study was conducted in order to assess the safety, efficacy, pharmacokinetics (PK) and pharmacodynamics (PD) of IPH5201±durvalumab (Imfinzi™) in patients with advanced solid tumours. The study consisted of two consecutive dose-escalation parts: • Part 1: Ascending doses of IPH5201 (100, 300, 1000 and 3000 mg) every 3 weeks (Q3W). • Part 2: Ascending doses of IPH5201 (300, 1000 and 3000 mg) and 1500 mg durvalumab Q3W.
PD cohorts enrolled patients with advanced squamous cell lung carcinoma or advanced pancreatic ductal adenocarcinoma in the top two dose levels of Parts 1 and 2. Primary endpoints were safety and tolerability. Key secondary endpoints included preliminary antitumour activity measured by objective response and disease control per RECIST v1.1, PK and immunogenicity. Exploratory endpoints included efficacy measured by duration of response and progression-free survival (PFS) per RECIST v1.1, overall survival and assessment of biomarkers.
Key inclusion criteria were: • Adults aged ≥18 years. • Histologically or cytologically confirmed advanced solid tumours. • At least one measurable lesion per RECIST v1.1. • Refractoriness to standard therapy or disease for which no standard therapy exists. • Eastern Cooperative Oncology Group Performance Status of 0 or 1. • Archival or fresh tumour sample. • Key exclusion criteria were: • Previous treatment with any agents targeting CD73, CD39, or adenosine receptors. • Treatment with any conventional or investigational anticancer therapy within 21 days of the first planned dose. • Active or prior autoimmune or inflammatory disorders within the past 5 years. • Cardiac and vascular criteria including presence of acute coronary syndrome or thromboembolic events within 6 months prior to enrolment, congestive heart failure, serious cardiac arrhythmia requiring medication, or uncontrolled hypertension. • Untreated metastases to the central nervous system.
Overall, 57 patients received treatment (IPH5201, n=38; IPH5201+durvalumab, n=19). […] Treatment-emergent adverse events (TEAEs) occurred in 96.5% of patients; 40.4% had grade ≥3 TEAEs. […] Treatment-related adverse events (TRAEs) occurred in 66.7% of patients (37/57 (64.9%) related to IPH5201; 11/19 (57.9%) related to durvalumab). […] The most common TRAEs were infusion-related reactions (21.1%), fatigue (17.5%), nausea, arthralgia, tumour pain and pruritus (8.8% each). […] Maximum tolerated dose (MTD) was not reached.

B1: IPH5201: humanized anti-CD39 antibody having the respective heavy and light chain amino acid sequences of SEQ ID NOS: 10 and 11 (antibody)
heavy: QVQLVQSGAEVKKPGASVKVSCKASGYTFTDYNMHWVRQAPGQRLEWIGYIVPLNGGSTFNQKFKGRATITVDTSARTAYMELSSLRSEDTAVYYCARGGTRFAYWGQGTLVTVSSASTKGPSVFPLAPSSKSTSGGTAALGCLVKDYFPEPVTVSWNSGALTSGVHTFPAVLQSSGLYSLSSVVTVPSSSLGTQTYICNVNHKPSNTKVDKRVEPKSCDKTHTCPPCPAPEAEGAPSVFLFPPKPKDTLMISRTPEVTCVVVDVSHEDPEVKFNWYVDGVEVHNAKTKPREEQYNSTYRVVSVLTVLHQDWLNGKEYKCKVSNKALPSSIEKTISKAKGQPREPQVYTLPPSREEMTKNQVSLTCLVKGFYPSDIAVEWESNGQPENNYKTTPPVLDSDGSFFLYSKLTVDKSRWQQGNVFSCSVMHEALHNHYTQKSLSLSPGK
light: DIVMTQSPDSLAVSLGERATINCRASESVDNFGVSFMYWFQQKPGQPPKLLIYGASNQGSGVPDRFSGSGSGTDFTLTISSLQAEDVAVYYCQQTKEVPYTFGGGTKVEIKRTVAAPSVFIFPPSDEQLKSGTASVVCLLNNFYPREAKVQWKVDNALQSGNSQESVTEQDSKDSTYSLSSTLTLSKADYEKHKVYACEVTHQGLSSPVTKSFNRGEC
eATP release reduced by added huCD39 [1]: restored | eATP accumulation [2]: eATP accumulated significantly | deaths due to treatment ([3]; all 57 treated patients): no deaths due to treatment | Maximum tolerated dose (MTD) ([3]; doses up to 3000 mg Q3W): not reached | DLTs during dose escalation ([3]; in vivo): No DLTs were observed | TEAE: anaemia ([3]; in vivo): 19.3% | TEAE: decreased appetite ([3]; in vivo): 26.3% | TEAE: fatigue ([3]; in vivo): 28.1% | TEAE: infusion-related reactions ([3]; in vivo): 21.1% | TEAE: tumour pain ([3]; in vivo): 19.3% | TRAE: arthralgia ([3]; in vivo): 8.8% | TRAE: fatigue ([3]; in vivo): 17.5% | TRAE: infusion-related reactions ([3]; in vivo): 21.1% | TRAE: nausea ([3]; in vivo): 8.8% | TRAE: pruritus ([3]; in vivo): 8.8% | TRAE: tumour pain ([3]; in vivo): 8.8% | correlation of dose with incidence of TEAEs of at least grade 3 ([3]; in vivo): No significant correlation | grade 4 TRAEs ([3]; in vivo): no grade 4 TRAEs | patients with TRAEs related to IPH5201 ([3]; in vivo): 64.9% | patients with TRAEs related to IPH5201, count ([3]; in vivo): 37/57 | patients with grade 3 TRAEs ([3]; in vivo): 10.5% | patients with grade ≥3 TEAEs ([3]; in vivo): 40.4% | patients with treatment-emergent adverse events (TEAEs) ([3]; in vivo): 96.5% | patients with treatment-related adverse events (TRAEs) ([3]; in vivo): 66.7%
